Results on two substances are retold here after publication PMC10646045.

What all share (assay): nanopore single-molecule
In data set [1] the target is SARS-CoV-2 nucleocapsid protein (SARS-CoV-2) (UniProt P0DTC9).
For data set [2], the system named is HCoV-229E nucleocapsid protein (HCoV-229E). Particulars: 20 nM protein, 200 pM probe; SPR: DPBS running buffer, temperature not stated; nanopore: 2 M LiCl, 5 mM MgCl2, 10 mM Tris-HCl, 1 mM EDTA, pH 8, 300 mV, about 2 h incubation.
Data set [3] deals with HCoV-OC43 nucleocapsid protein (HCoV-OC43). Particulars: 20 nM protein, 200 pM probe; SPR: DPBS running buffer, temperature not stated; nanopore: 2 M LiCl, 5 mM MgCl2, 10 mM Tris-HCl, 1 mM EDTA, pH 8, 300 mV, about 2 h incubation.
Data set [4] deals with SARS-CoV-2 spike protein S1 region (SARS-CoV-2) (UniProt P0DTC2).
Data set [5] relates to HCoV-NL63 spike protein (HCoV-NL63). Particulars: 200 nM protein, 200 pM probe; SPR: DPBS running buffer, temperature not stated; nanopore: 2 M LiCl, 5 mM MgCl2, 10 mM Tris-HCl, 1 mM EDTA, pH 8, 300 mV, about 2 h incubation.
The subject of data set [6] is spike protein from lysed SARS-CoV-2 pseudovirus (SARS-CoV-2).
Data set [7] deals with HCoV-OC43 spike protein (HCoV-OC43). Particulars: 200 nM protein, 200 pM probe; SPR: DPBS running buffer, temperature not stated; nanopore: 2 M LiCl, 5 mM MgCl2, 10 mM Tris-HCl, 1 mM EDTA, pH 8, 300 mV, about 2 h incubation.

Turning to “NBA centre-labelled 10 kbp molecular probe”, the binding signal (% bound events) in data set [1] came to 5.71; in data set [2], 0.31; in data set [3], 0.83.

With SBA end-labelled 10 kbp molecular probe, the binding signal (% bound events) was found to be 9.82 in data set [4], 0.02 in data set [5], 0.6 in data set [6] and 0.5 in data set [7].
